Data reported in publication PMC5941315.

Target: MMP9 full length (UniProt P14780 20-707)
Experiment: fluorescence polarization

MMP9 full length, sequence (P14780 20-707): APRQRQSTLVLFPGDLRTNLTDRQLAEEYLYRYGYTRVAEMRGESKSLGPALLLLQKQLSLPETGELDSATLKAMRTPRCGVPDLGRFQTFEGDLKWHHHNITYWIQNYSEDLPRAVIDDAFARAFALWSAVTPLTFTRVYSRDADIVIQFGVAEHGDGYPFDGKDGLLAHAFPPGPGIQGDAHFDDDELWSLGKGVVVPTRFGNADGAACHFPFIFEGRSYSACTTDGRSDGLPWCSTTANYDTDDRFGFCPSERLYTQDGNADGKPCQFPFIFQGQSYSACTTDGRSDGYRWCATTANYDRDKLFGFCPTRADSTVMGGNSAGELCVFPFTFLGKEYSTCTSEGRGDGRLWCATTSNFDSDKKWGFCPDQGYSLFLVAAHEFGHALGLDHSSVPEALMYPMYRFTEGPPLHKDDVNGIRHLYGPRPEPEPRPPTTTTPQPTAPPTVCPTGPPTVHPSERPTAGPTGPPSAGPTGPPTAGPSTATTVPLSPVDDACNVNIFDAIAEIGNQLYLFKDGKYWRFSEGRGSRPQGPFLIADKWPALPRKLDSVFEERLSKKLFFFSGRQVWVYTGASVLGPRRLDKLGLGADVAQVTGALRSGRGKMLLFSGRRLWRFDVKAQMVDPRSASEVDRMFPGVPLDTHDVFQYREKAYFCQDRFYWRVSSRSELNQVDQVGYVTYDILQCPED

B1: Scrambled 40-mer (ssDNA)
DNA: ACGCCAATAACGCTATTCGAGCTCGAGACGGCGCGATCTC
- binding result: binds
